From patent US20090098570A1 (Daiichi Sankyo, published 2009)
No end group written: not given here. *: point of attachment. Biotin = O=C1N[C@H]2[C@H](CS[C@H]2CCCCC(=O)*)N1

Assays:
[1] = target: T1, His-LXRα/FLAG-RXRα heterodimer (ligand binding domains of human LXRα and human RXRα) (human, UniProt Q13133 164-447; P19793 201-462); test: FRET (665/620 nm), anti-His tag antibody + streptavidin, biotinylated peptide; with Compound A, relative to DMSO-only control
T1 construct: Co-expressed in E. coli BL21(DE3) from pET15b-LXRα/FLAG-RXRα and purified together on Ni2+ resin; also called His-LXRα and FLAG-RXRα; heterodimer comprising LXRα and RXRα
T1 sequence 1: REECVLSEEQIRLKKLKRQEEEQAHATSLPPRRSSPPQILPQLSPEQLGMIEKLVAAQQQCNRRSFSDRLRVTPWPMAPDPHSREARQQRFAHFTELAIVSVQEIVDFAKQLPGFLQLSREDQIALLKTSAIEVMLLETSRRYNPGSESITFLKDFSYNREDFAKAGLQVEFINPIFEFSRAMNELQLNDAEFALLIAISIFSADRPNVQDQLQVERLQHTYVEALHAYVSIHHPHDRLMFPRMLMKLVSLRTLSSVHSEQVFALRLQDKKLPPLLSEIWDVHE
T1 sequence 2: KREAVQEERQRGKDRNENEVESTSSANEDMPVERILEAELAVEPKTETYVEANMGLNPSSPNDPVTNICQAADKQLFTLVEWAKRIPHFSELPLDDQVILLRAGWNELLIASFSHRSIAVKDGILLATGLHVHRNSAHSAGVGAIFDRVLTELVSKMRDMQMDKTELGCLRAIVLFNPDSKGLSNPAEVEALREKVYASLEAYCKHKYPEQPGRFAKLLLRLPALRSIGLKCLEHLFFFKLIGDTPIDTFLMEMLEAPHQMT

[2] = target: T1, His-LXRα/FLAG-RXRα heterodimer (ligand …); test: FRET (665/620 nm), anti-His tag antibody + streptavidin, biotinylated peptide; with Compound B, relative to DMSO-only control
[3] = target: T2, His-LXRβ/FLAG-RXRα heterodimer (ligand binding domains of human LXRβ and human RXRα) (human, UniProt P55055 155-460; P19793 201-462, limits assumed); test: FRET (665/620 nm), anti-His tag antibody + streptavidin, biotinylated peptide; with Compound A, relative to DMSO-only control
T2 construct: Co-expressed in E. coli BL21(DE3) from pET15b-LXRβ/FLAG-RXRα and purified together on Ni2+ resin; also called His-LXRβ and FLAG-RXRα; heterodimer comprising LXRβ and RXRα
T2 sequence 1: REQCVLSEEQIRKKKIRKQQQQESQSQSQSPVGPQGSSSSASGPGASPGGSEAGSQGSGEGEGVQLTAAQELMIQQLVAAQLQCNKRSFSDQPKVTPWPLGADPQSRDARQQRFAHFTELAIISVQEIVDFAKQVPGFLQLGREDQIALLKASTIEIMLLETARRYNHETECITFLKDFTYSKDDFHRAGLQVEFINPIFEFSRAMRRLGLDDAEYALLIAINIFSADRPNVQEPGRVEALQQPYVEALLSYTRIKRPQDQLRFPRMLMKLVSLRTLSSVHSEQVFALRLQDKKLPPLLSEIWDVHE
T2 sequence 2: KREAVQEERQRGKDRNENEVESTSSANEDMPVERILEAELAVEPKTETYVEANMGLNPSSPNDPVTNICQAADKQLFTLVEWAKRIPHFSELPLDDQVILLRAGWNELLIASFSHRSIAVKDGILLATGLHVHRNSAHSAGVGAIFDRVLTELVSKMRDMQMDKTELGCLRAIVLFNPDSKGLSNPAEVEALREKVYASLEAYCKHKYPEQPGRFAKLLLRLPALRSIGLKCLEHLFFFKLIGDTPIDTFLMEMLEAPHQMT

[4] = target: T2, His-LXRβ/FLAG-RXRα heterodimer (ligand …); test: FRET (665/620 nm), anti-His tag antibody + streptavidin, biotinylated peptide; with Compound B, relative to DMSO-only control
[5] = target: T3, His-LXRβ/FLAG-RXRα heterodimer (ligand binding domains of human LXRβ and human RXRα) (human) (UniProt P55055); test: FRET (665/620 nm), anti-His tag antibody + streptavidin, biotinylated peptide; with Compound A, relative to DMSO-only control
T3 sequence 1: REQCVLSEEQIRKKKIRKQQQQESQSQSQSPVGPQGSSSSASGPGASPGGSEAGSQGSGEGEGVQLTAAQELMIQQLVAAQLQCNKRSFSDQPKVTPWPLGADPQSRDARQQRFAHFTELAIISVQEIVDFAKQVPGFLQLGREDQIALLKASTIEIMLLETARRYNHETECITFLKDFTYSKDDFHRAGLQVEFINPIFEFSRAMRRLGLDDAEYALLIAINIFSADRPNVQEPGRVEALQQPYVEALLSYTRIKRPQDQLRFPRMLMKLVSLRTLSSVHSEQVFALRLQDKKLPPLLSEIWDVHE
T3 sequence 2: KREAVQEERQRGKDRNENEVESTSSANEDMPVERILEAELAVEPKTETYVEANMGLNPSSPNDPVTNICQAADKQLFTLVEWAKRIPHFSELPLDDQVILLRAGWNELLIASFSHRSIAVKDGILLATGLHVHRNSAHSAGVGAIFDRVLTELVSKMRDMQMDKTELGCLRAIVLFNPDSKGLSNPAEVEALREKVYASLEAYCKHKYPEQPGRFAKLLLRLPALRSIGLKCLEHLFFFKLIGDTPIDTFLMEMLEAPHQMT

[6] = target: T3, His-LXRβ/FLAG-RXRα heterodimer (ligand binding domains of human LXRβ and human RXRα) (human); test: FRET (665/620 nm), anti-His tag antibody + streptavidin, biotinylated peptide; with Compound B, relative to DMSO-only control
[7] = target: T1, His-LXRα/FLAG-RXRα heterodimer (ligand …); test: as above; remark: listed apart in the source
Description: (§1) Next, 10 μl of peptide reaction solution (1.00 μl of 5 μM peptide, 1.00 μl of 10× PBS, 2.50 μl of 2 M KF, 0.10 μl of 10% NP40, 0.20 μl of streptavidin (CIS Bio International) and 5.20 μl of H₂O) were added to each well of the 384-well assay plate and incubated for 17 hours at 4° C. The peptide added here was comprising of any of the amino acid sequences of (a) to (g) below, and the amino acid of the N-terminal was biotinylated.
(§2) The value obtained by multiplying 1000 by the value resulting from dividing the measured value at 665 nm when applying excitation light at 337 nm by the measured value at 620 nm was determined. This value was then divided by the value determined by the same method when only DMSO was added without adding LXR ligand (Compound A or Compound B), and this value was then multiplied by 100 and indicated as the percentage relative to the control (% of control) as shown in Table 6.
(§3) (1) According to the same method as Example 2) (using the following peptides (h) to (m), instead of the peptides (a) to (g) in Example 2), the amount of coactivator bound to the heterodimer LXRα and RXRα were determined.

[8] = target: T1, His-LXRα/FLAG-RXRα heterodimer (ligand …); test: FRET (665/620 nm), anti-His tag antibody + streptavidin, biotinylated peptide; with Compound A, relative to DMSO-only control; remark: listed apart in the source
Description: as §1, §2, §3

B1: ASC-2 NR-1 peptide NKDVTLTSPLLVNLLQSDISAGHFGVNNKQ (LXXLL motif on the N-terminal side of ASC-2) (peptide)
peptide: Biotin-NKDVTLTSPLLVNLLQSDISAGHFGVNNKQ
% of control [1]: 156 % of control
% of control [2]: 116 % of control

B2: PGC-1α peptide DGTPPPQEAEEPSLLKKLLLAPANT (aa 130-154) (peptide)
peptide: Biotin-DGTPPPQEAEEPSLLKKLLLAPANT
% of control [3]: 191 % of control
% of control [1]: 362 % of control
% of control [4]: 195 % of control
% of control [2]: 207 % of control

B3: PNRC peptide … (aa 848-872) (peptide)
peptide: Biotin-KNPTSCSRRFYQLTKLLDSVQPIAR
% of control [5]: 109 % of control
% of control [6]: 107 % of control

B4: DAX1 peptide … (aa 132-156) (peptide)
peptide: Biotin-CCFCGEDHPRQGSILYSLLTSSKQT
modifications: cysteine pairing not given here
% of control [5]: 116 % of control
% of control [6]: 120 % of control

B5: SRC-1-3 peptide … (the third LXXLL motif from the N-terminal side of SRC-1) (peptide)
peptide: Biotin-KESKDHQLLRYLLDKDEKDL
% of control [5]: 111 % of control
% of control [6]: 108 % of control

B6: SRC-1-2 peptide … (the second LXXLL motif from the N-terminal side of SRC-1) (peptide)
peptide: Biotin-CPSSHSSLTERHKILHRLLQEGSPS
% of control [5]: 120 % of control
% of control [6]: 119 % of control

B7: TRAP220 peptide GHGEDFSKVSQNPILTSLLQITGNG (aa 590-614) (peptide)
peptide: Biotin-GHGEDFSKVSQNPILTSLLQITGNG
% of control [7]: 107 % of control
% of control [8]: 131 % of control

B8: PERC NRB2 peptide … (aa 332-354) (peptide)
peptide: Biotin-HSKASWAEFSILRELLAQDVLCD
% of control [5]: 104 % of control
% of control [6]: 115 % of control

B9: TIF2 peptide … (aa 679-703) (peptide)
peptide: Biotin-HGTSLKEKHKILHRLLQDSSSPVDL
% of control [5]: 108 % of control
% of control [6]: 114 % of control

B10: SRC-1-3 peptide KESKDHQLLRYLLDKDEKDL (the third LXXLL motif from the N-terminal side of SRC-1) (peptide)
peptide: Biotin-KESKDHQLLRYLLDKDEKDL
% of control [1]: 181 % of control
% of control [2]: 112 % of control

B11: ACTR NRB3 peptide SPKKKENNALLRYLLDRDDPSDALSK (aa 728-753) (peptide)
peptide: Biotin-SPKKKENNALLRYLLDRDDPSDALSK
% of control [7]: 92 % of control
% of control [8]: 167 % of control

B12: SRC-1-2 peptide CPSSHSSLTERHKILHRLLQEGSPS (the second LXXLL motif from the N-terminal side of SRC-1) (peptide)
peptide: Biotin-CPSSHSSLTERHKILHRLLQEGSPS
% of control [1]: 267 % of control
% of control [2]: 182 % of control

B13: TIF2 peptide HGTSLKEKHKILHRLLQDSSSPVDL (aa 679-703) (peptide)
peptide: Biotin-HGTSLKEKHKILHRLLQDSSSPVDL
% of control [1]: 267 % of control
% of control [2]: 157 % of control

B14: TIF2 NRB2 peptide KQEPVSPKKKENALLRYLLDKDDTK (aa 731-755) (peptide)
peptide: Biotin-KQEPVSPKKKENALLRYLLDKDDTK
% of control [7]: 127 % of control
% of control [8]: 268 % of control

B15: TIF2 NRB2 peptide … (aa 731-755) (peptide)
peptide: Biotin-KQEPVSPKKKENALLRYLLDKDDTK
% of control [5]: 125 % of control
% of control [6]: 124 % of control

B16: SRC-1-4 peptide QKPTSGPQTPQAQQKSLLQQLLTE (the fourth LXXLL motif from the N-terminal side of SRC-1) (peptide)
peptide: Biotin-QKPTSGPQTPQAQQKSLLQQLLTE
% of control [3]: 155 % of control
% of control [1]: 207 % of control
% of control [4]: 144 % of control
% of control [2]: 128 % of control

B17: ACTR NRB3 peptide … (aa 728-753) (peptide)
peptide: Biotin-SPKKKENNALLRYLLDRDDPSDALSK
% of control [5]: 129 % of control
% of control [6]: 103 % of control

B18: TRAP220 peptide … (aa 590-614) (peptide)
peptide: Biotin-GHGEDFSKVSQNPILTSLLQITGNG
% of control [5]: 111 % of control
% of control [6]: 116 % of control

B19: ASC-2 NR-1 peptide … (LXXLL motif on the N-terminal side of ASC-2) (peptide)
peptide: Biotin-NKDVTLTSPLLVNLLQSDISAGHFGVNNKQ
% of control [5]: 114 % of control
% of control [6]: 115 % of control

B20: PERC NRB2 peptide HSKASWAEFSILRELLAQDVLCD (aa 332-354) (peptide)
peptide: Biotin-HSKASWAEFSILRELLAQDVLCD
% of control [7]: 104 % of control
% of control [8]: 127 % of control

B21: PNRC peptide KNPTSCSRRFYQLTKLLDSVQPIAR (aa 848-872) (peptide)
peptide: Biotin-KNPTSCSRRFYQLTKLLDSVQPIAR
% of control [7]: 110 % of control
% of control [8]: 140 % of control

B22: DAX1 peptide CCFCGEDHPRQGSILYSLLTSSKQT (aa 132-156) (peptide)
peptide: Biotin-CCFCGEDHPRQGSILYSLLTSSKQT
modifications: cysteine pairing not given here
% of control [7]: 107 % of control
% of control [8]: 158 % of control

B23: ASC-2 NR-2 peptide … (LXXLL motif on the C-terminal side of ASC-2) (peptide)
peptide: Biotin-SPAMREAPTSLSQLLDNSGAPNVTIKPPGL
% of control [5]: 120 % of control
% of control [6]: 116 % of control

B24: ASC-2 NR-2 peptide SPAMREAPTSLSQLLDNSGAPNVTIKPPGL (LXXLL motif on the C-terminal side of ASC-2) (peptide)
peptide: Biotin-SPAMREAPTSLSQLLDNSGAPNVTIKPPGL
notes: also called ASC2 MR-2
% of control [1]: 254 % of control
% of control [2]: 137 % of control
